Our source for the protein stability index values is the supplement of paper PMC10724198.

± gives the standard deviation of the averaged measurements.
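Further: PSI is a weighted mean of sequencing reads over stability bins, variants kept only with over 10 reads, mCherry proximal and sfGFP distal, peptide attached via GGGS linker.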

The subject of this data set is Saccharomyces cerevisiae. In words: protein stability index of tFT-peptide fusion (C-terminal peptide) (PSI (0-1 scale)); higher = more stable (slower turnover). The settings on record: genetic background: wild type; temperature: 30 C.
As to PYRFRDRTYEEL, the protein stability index stood at 0.673 ± 0.022.
For the sequence PYSSVPLAPPRP, the protein stability index was determined as 0.736 ± 0.043.
Sequence QAGKPAIHHAAL yielded a protein stability index of 0.682 ± 0.0034.
Next, QAVTSVGTTNIV: 0.689 ± 0.023; QCAIRQCCLVSL: 0.574 ± 0.064.
To QCGAWLKFTCHV belongs 0.636 ± 0.058.
Turning to QCRSLVGGCCVW, the protein stability index was 0.693 ± 0.031.
To QCSVFSSPPRAL belongs 0.723 ± 0.1.
In turn, QCVSGLGPVVRT showed a protein stability index of 0.7329 ± 0.0029.
To QDERPLAPRTRW belongs 0.7251 ± 0.0032; to QDLIVENGSVSG, 0.655 ± 0.009.
With QESPERRGVPPF, the protein stability index came to 0.674 ± 0.047.
As to QFSSPPLPLLSP, the protein stability index amounted to 0.629 ± 0.035.
Consider QGCSRHIRTGKK, for which the protein stability index was found to be 0.5741 ± 0.0037.
QGGRGGRHVTDI: the protein stability index worked out at 0.688 ± 0.022.
In the case of QGIKKKKEKERR, the protein stability index turned out to be 0.768 ± 0.14.
QGQAAHEHFHGR displayed a protein stability index of 0.654 ± 0.042.
The sequence QGREREAGAEVM came in with a protein stability index of 0.699 ± 0.03.
To QGRTWGGCWGRG belongs 0.649 ± 0.012.
Turning to QGSKQKIISAAT, the protein stability index stood at 0.6807 ± 0.0064.
Next, QIERSRIAYLST: 0.6933 ± 0.0027; QIQRSGGGGHCG: 0.739 ± 0.0028; QITSHRVISRLV: 0.546 ± 0.037.
Next, QKIREKKKRKKL: 0.622 ± 0.015; QKKIIRKRKKNR: 0.666 ± 0.012.
As to QKKKKKKVQKKQ, the protein stability index worked out at 0.6702 ± 0.0054.
Sequence QKKKKLAYVGKR had a protein stability index of 0.659 ± 0.012.
For the sequence QKKKKNKKQKTE, the protein stability index came out at 0.599 ± 0.021.
QKNETNQWKGKK came in with a protein stability index of 0.672 ± 0.032.
As to QKQINQKKRTMK, the protein stability index is 0.649 ± 0.055.
Next, QKREEPQNKSQD: 0.72 ± 0.017.
As to QKSCHIADGREL, the protein stability index came out at 0.671 ± 0.022.
To QLEGQGISFRVL belongs 0.785 ± 0.065; to QLENQRGWDRKI, 0.656 ± 0.038; to QLHGWMTRNPLL, 0.746 ± 0.051.
For QLRPPHRTLHLP, the protein stability index is 0.698 ± 0.028.
As for QLSTSGLTTTAW, the protein stability index was determined as 0.707 ± 0.029.
Next, QLYGHNRRNQGL: 0.611 ± 0.046.
Next, QMSHTGPTTIQS: 0.695 ± 0.023; QNERRLPVGSYA: 0.696 ± 0.06; QNGAEESVSVGT: 0.662 ± 0.042.
Sequence QNIGPKEESVLA had a protein stability index of 0.682 ± 0.035.
In turn, QNLYLSFLRIKL showed a protein stability index of 0.624 ± 0.0088.
Regarding QNQILNKKVIFK, the protein stability index came out at 0.681 ± 0.056.
To QPGDVWEFGVLL belongs 0.73 ± 0.027; to QPGTPLSPPPSP, 0.49 ± 0.019.
For QPKEGGRPKKKE, the protein stability index amounted to 0.675 ± 0.035.
In the case of QPRLPLPLSSPV, the protein stability index came to 0.611 ± 0.071.
Regarding QPTRADLEAPPR, the protein stability index is 0.6858 ± 0.0065.
For QQDHRSHAHRRL, the protein stability index is 0.7047 ± 0.0013.
With QQPPSSGTPDNH, the protein stability index amounted to 0.703 ± 0.027.
Regarding QRNPQNKDRVQD, the protein stability index came out at 0.663 ± 0.004.
QRRGAPTPPACL registered a protein stability index of 0.748 ± 0.011.
QRVWGFRSVFVR yielded a protein stability index of 0.532 ± 0.035.
Consider QRWKEGRGHSRQ, for which the protein stability index amounted to 0.686 ± 0.017.
Next, QSGLAGIPIPKN: 0.681 ± 0.078; QSKFNKFPIVET: 0.656 ± 0.046; QSPMTTGASERH: 0.623 ± 0.066.
Next, QSPSALAEGPDD: 0.641 ± 0.099; QSRAQTFGTSIS: 0.668 ± 0.013.
To QSYRGIGFRTTM belongs 0.607 ± 0.049; to QTGPPDPPLSPP, 0.643 ± 0.014.
Sequence QTHFRPDYALDW displayed a protein stability index of 0.753 ± 0.064.
QTTKEQQKKSYK gave a protein stability index of 0.665 ± 0.053.
To QVILQHSLGLLD belongs 0.707 ± 0.014.
For QYGARNHPPTTK, the protein stability index was 0.742 ± 0.063.
QYKRFYGSLVNG returned a protein stability index of 0.608 ± 0.047.
QYLKTKKEGKEF displayed a protein stability index of 0.698 ± 0.024.
To RAAFNPCYTIDF belongs 0.729 ± 0.025; to RAARGGRSGTRV, 0.643 ± 0.097; to RAARVSVVAYPF, 0.682 ± 0.0094.
The sequence RAAVTDPCNPLL registered a protein stability index of 0.693 ± 0.0094.
Turning to RACDQPSGVCNV, the protein stability index came out at 0.669 ± 0.038.
The sequence RACGVSMRIKGG gave a protein stability index of 0.695 ± 0.033.
On to RACLDRNNLDLG, for which the protein stability index was found to be 0.605 ± 0.075.
The sequence RADQGGVVNGEG showed a protein stability index of 0.732 ± 0.055.
To RAIGREGILHRA belongs 0.693 ± 0.094; to RAKRMVGQTIQE, 0.765 ± 0.18; to RALCGWFAKRMI, 0.637 ± 0.035.
For RALCISCYVALR, the protein stability index was 0.5849 ± 0.00077.
As for RAPSTPSGRPSL, the protein stability index stood at 0.65 ± 0.051.
To RARAIGVGSGRG belongs 0.698 ± 0.023; to RARCPGGQIKLH, 0.714 ± 0.2; to RARQYTTAMIQS, 0.469 ± 0.088.
In the case of RARSFINSFSQS, the protein stability index was found to be 0.671 ± 0.018.
The sequence RASRSPIARPGT had a protein stability index of 0.643 ± 0.018.
Take RAVFLCVWDYSG: the protein stability index is 0.597 ± 0.13.
Next, RAVVTGEGESGG: 0.624 ± 0.0092; RCCGRSRLVVPW: 0.6986 ± 0.0023.
In the case of RCEGRRIEQSGK, the protein stability index was 0.7037 ± 0.0049.
Regarding RCEWRGSCWGGE, the protein stability index is 0.653 ± 0.062.
As for RCGCLRVPTGGG, the protein stability index is 0.679 ± 0.075.
Next, RCGGEWTGGVWR: 0.845 ± 0.22; RCGGGKWGRGAE: 0.69683 ± 0.00067.
RCGPPTAPSLDP gave a protein stability index of 0.619 ± 0.008.
Consider RCPLSFLRCSMA, for which the protein stability index is 0.586 ± 0.018.
Sequence RCPPLWNPLSPL gave a protein stability index of 0.697 ± 0.034.
With RCPPPQPPVRKV, the protein stability index was found to be 0.642 ± 0.1.
For RCPRSPPQPLWT, the protein stability index came out at 0.731 ± 0.03.
To RCSCNKNGFSSN belongs 0.607 ± 0.2; to RCSLLVVPHSPP, 0.717 ± 0.04; to RCYSFTKIRNNL, 0.718 ± 0.13.
RDAVLSCARRSQ yielded a protein stability index of 0.752 ± 0.17.
RDCSGGRRGLER showed a protein stability index of 0.601 ± 0.023.
Sequence RDDDSKDKRTEI gave a protein stability index of 0.684 ± 0.065.
RDLLPRWTWIIW came in with a protein stability index of 0.76 ± 0.11.
As for RDPDTWKLFSLT, the protein stability index worked out at 0.687 ± 0.043.
Consider RDPPLPRRLPSL, for which the protein stability index came out at 0.706 ± 0.058.
For RDRMSEGLGDRS, the protein stability index amounted to 0.684 ± 0.059.
The sequence RDSLEKCLFEVQ gave a protein stability index of 0.703 ± 0.05.
In the case of RDSQSGVVVKGT, the protein stability index was found to be 0.726 ± 0.024.
Regarding RDTHSEPKPAQY, the protein stability index is 0.721 ± 0.0088.
The sequence RDVRNRARVKRE came in with a protein stability index of 0.693 ± 0.012.
REEFHGLKGRGG had a protein stability index of 0.671 ± 0.046.
REEGGWGEAWRE showed a protein stability index of 0.726 ± 0.049.
REGALVYWGFLG registered a protein stability index of 0.652 ± 0.018.
